# Results taken from the nanobody polyreactivity screen of Harvey et al. (2022).
# Experiment: yeast display, Sf9 membrane polyspecificity reagent, FACS + sequencing; frameworks hold sequencing errors
# How it was run: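 Polyreactivity labels are assigned by the sorting gate from which each nanobody was recovered. The gates were low and high (top ~1%), set on anti-HA fluorescence for expression and streptavidin fluorescence for reagent binding. Before sorting, galactose-induced (36–48 hours) yeast display cells were stained for 1 hour at 4 °C with 10% biotinylated, detergent-solubilized Sf9 membrane reagent.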
row,Sequence,polyreactivity (PSR sort gate)
1,QVQLVESGGGLVQAGGSLRLSCAASGSTLNSYVMGWYRQAPGKERELVATIRSGSSTNYADSVKGRFTISRDNAKNTVYLQMNSLKPEDTAVYYCAADAYSLCYDSWGQGTQVTVSS,low polyreactivity
2,QVQLVESGGGLVQAGGSLRLSCAASGSTLPAYTMAWYRQAPGKERELVAAISYRGGSTYYADSVKGRFTISRDNAKNTVYLQMNSLKPEDTAVYYCAAVYSVAYASTHYRIYDYWGQGTQVTVSS,high polyreactivity
3,QVQLVESGGGLVQAGGSLRLSCAASGSTLPGNVMGWYRQAPGKERELVAAISWTGGSTYYADSVKGRFTISRDNAKNTVYLQMNSLKPEDTAVYYCAVDAYESPWWSDPYEYWGQGTQVTVSS,low polyreactivity
4,QVQLVESGGGLVQAGGSLRLSCAASGSTLPRYTMGWYRQAPGKERELVAAISFSGSSTYYADSVKGRFTISRDNAKNTVYLQMNSMKPEDTSVYYCRYGYNYWGQGTQVTVSS,high polyreactivity
5,QVQLVESGGGLVQAGGSLRLSCAASGSTLQRYAMGWYRQAPGKERELVAAISSGGRTYYADSVKGRFTISRDNAKNTVYLQMNRLKPEDTAVYYCAAVLPARSEPVRYYYWGQGTQVTVSS,high polyreactivity
6,QVQLVESGGGLVQAGGSLRLSCAASGSTLRDYVMGWYRQAPGKERELVAAITSRVDDTYYADSVKGRFTISRDNAKNTVYLQMNSLKPEDTAVYDCAADYSVTLRIGGYYWFYAFDYWGQGTQVTVSS,low polyreactivity
7,QVQLVESGGGLVQAGGSLRLSCAASGSTLRGYTMGWYRQAPGKERELVAAISWSGASTYYADSVKGRFTISRDNAKNTVYLQMNSLKPEDTAVYYCNRAGRYVREYTVDYWGQGTQVTVSS,high polyreactivity
8,QVQLVESGGGLVQAGGSLRLSCAASGSTLRPYGMGWYRQAPGKERELVATIRSSSGRTYYADSVKGRFTISRDNAKNTVYLQMNSLKPEDTAVYYCARRYITNIKYDYWGQGTQVTVSS,high polyreactivity
9,QVQLVESGGGLVQAGGSLRLSCAASGSTLRSYTMGWYRQAPGKERELVAAITTTGRTYYADSVKGRFTISRDNAKNTVYLQMNSLKPEDTAVYYCNAVAPGKYNHWGQGTQVTVSS,high polyreactivity
10,QVQLVESGGGLVQAGGSLRLSCAASGSTLRTYAMGWYRQAPGKERELVAAISFSTTSTYYADSVKGRFTISRDNAKNTVYLQMNSLKPEDTAGYDCAAGPRTRYQPDLPGCYYSWGQGTQVTVSS,high polyreactivity
11,QVQLVESGGGLVQAGGSLRLSCAASGSTLRYNTMGWYRQAPGKERELVAAISVRGGSTYYADSVKGRFTISRDNAKNTVYLQMNSLKPEDTAVYYCARRIKLGQRQGGYYWGQGTQVTVSS,high polyreactivity
12,QVQLVESGGGLVQAGGSLRLSCAASGSTLSYYAMGWYRQAPGKERELVAAISFSGGITYYADSVKGRFTISRDNAKNTVYLQMNSLKPEDTAVYYIKAEYKVYRAYVIWYDYWGQGTQVTVSS,high polyreactivity
13,QVQLVESGGGLVQAGGSLRLSCAASGSTLSYYAMGWYRQAPGKERELVAAISSGGTTNYADSVKGRFTISRDNAKNTVYLQMNSLKPEDTAVYYCAAVRKSWWYSSEYYYWGQGTQVTVSS,low polyreactivity
14,QVQLVESGGGLVQAGGSLRLSCAASGSTLTANAMGWYRQAPGKERELVAAISSAGRTYYADSVKGRFTISRDNAKNTVYLQMNSLKPEDTAVYYCAAPYGQLFTQGTWYEYWGQGTQVTVSS,low polyreactivity
15,QVQLVESGGGLVQAGGSLRLSCAASGSTLVANAMGWYRQAPGKERELVARITSGTSTYYADSVKGRFTISRDNAKNTVYLQMNSLKPEDTAVYYCAAGRWTRRRTYDSWGQGTQVTVSS,high polyreactivity
16,QVQLVESGGGLVQAGGSLRLSCAASGSTLVGYVMGWYRQAPGKERELVAAITTVGSTYYADSVKGRFTISRDNAKNTVYLQMNSLKPEDTAVYYCAADRSDLAEEGYAGYDYWGQGTQVTVSS,low polyreactivity
17,QVQLVESGGGLVQAGGSLRLSCAASGSTLVGYVMGWYRQAPGKERELVATISRSGGSTYYADSVKGRFTISRDNAKNTVYLQMNSLKPEDTAVYYCATDLLNNVDYDYWGQGTQVTVSS,low polyreactivity
